According to the DeepSol protein solubility set:

Assay: soluble on expression in E. coli; label from the status in PepcDB or PDB records

Sequence: MGSDKIHHHHHHMRHTILFIIDGLPGGGAERVVITLAGEMAARGHQVTIASLQASLDYAIPAGVDYLLVEDRYRGPLRRQTEIRRRARQLDGALRRHFAGRRIDLAVSNLPKTDRIVAACPYLEQAWLCLHCAIQAGQLAERSGIRRWLKKRQLVRTYSGRKLITVCQALQRDVLDCGIRPARMEAIYNPFDLDWIRRRAAQPCPMDGEDFILHVGRFNHQKRHDRLLEAFKLSGYPGKLALLGQGGQAELSAIQVQAERLGVADRLVVAGFTDNPYAYMRAARALVLSSDYEGFGNVLVEALACGTPVASTNCPEGPAEILTGPLSIGLSELNGQALADAIKRVLASRPLAGPEQLAAFAQDAVVERYLALVNQ
- soluble on expression in E. coli: not soluble

Sequence: MGSDKIHHHHHHMSRLERLVTIDSLIRSRTYPSVADFCARFELSERAIFADLAYLRERIGAPLAYSRRNGGYYYRDPTWVMPMLQVTEGELLAFLISTELSRRYLGTPFAAPLRRLLQRMEAYITEQIVVHPDALLAHLTFQPGALAAVDPELVQVLHECIRECYPVEITYFTASRQELTHRLIEPYHLFLARGDLHVIAFDHLRGELRQFALYRIRQWQVRRHERFVRNPQIDIAAYLRNGFVVEGGTQPLLIEIAFDREQAPYIRERQWHATQQLEDQPDGGVILRFQSGALGEIKRWVLGYGSHARVLSPPELVQMVADELRKAAALYT
- soluble on expression in E. coli: not soluble

Sequence: MTEMTKPFLIVIVGPTASGKTELSIEVAKKFNGEIISGDSMQVYQGMDIGTAKVTTEEMEGIPHYMIDILPPDASFSAYEFKKRAEKYIKDITRRGKVPIIAGGTGLYIQSLLYNYAFEDESISEDKMKQVKLKLKELEHLNNNKLHEYLASFDKESAKDIHPNNRKRVLRAIEYYLKTKKLLSSRKKVQQFTENYDTLLIGIEMSRETLYLRINKRVDIMLGHGLFNEVQHLVEQGFEASQSMQAIGYKELVPVIKGNISMENAVEKLKQHSRQYAKRQLTWFKNKMNVHWLNKERMSLQMMLDEITTQINKRSSNHDCKRKHPRPSTRELLEHHHHHH
- soluble on expression in E. coli: soluble

Sequence: MRVGIPTETKNNEFRVAITPAGVAELTRRGHEVLIQAGAGEGSAITDADFKAAGAQLVGTADQVWADADLLLKVKEPIAAEYGRLRHGQILFTFLHLAASRACTDALLDSGTTSIAYETVQTADGALPLLAPMSEVAGRLAAQVGAYHLMRTQGGRGVLMGGVPGVEPADVVVIGAGTAGYNAARIANGMGATVTVLDINIDKLRQLDAEFCGRIHTRYSSAYELEGAVKRADLVIGAVLVPGAKAPKLVSNSLVAHMKPGAVLVDIAIDQGGCFEGSRPTTYDHPTFAVHDTLFYCVANMPASVPKTSTYALTNATMPYVLELADHGWRAACRSNPALAKGLSTHEGALLSERVATDLGVPFTEPASVLAHHHHHH
- soluble on expression in E. coli: soluble

Sequence: MGSDKIHHHHHHMNYKYYTIVILGLLAFSACEKDDIDIPATDNEVNQWIEQTMRENYLWYSELPDKSSLDFSLDPESFFKGLLSDKDGKELSDGHHYFSQLEKATVTKSIYDANNSYGFDFATSNLKDGGSTYKIAIVLYVLKDSPAEEAGLKRGDWILGVNGSLGSIQDYDVLRSGGSVSLQLGKETGNTKGFVSTRRVTLNASRTVEDSPFLKDSVYTYGNKRIGYLMYNHFASGPDEYDYSDTSYNLYLQQLFEKFKSRNVNEFVLDLRYNGGGLVNCAQLLASLLVRENVLGEPLCIMEYNDKNSNKNETLPLLKTTEVMAGNLNLQRLFVLTGSTTASASELIINSLRSYLDVRVIGKQTFGKTVGMTIYNESKKYGWILSPVTFHIYNKDREADYEDGFHPDVAIDEFKSDLAEFGDLKDPLLGQAIYEITGQSPLLRSATPRGNREIQYNPPLSYKDNLLLIPKD
- soluble on expression in E. coli: not soluble

Sequence: MVSVNENALPLVERMIERAELLNVEVQELENGTTVIDCGVEAAGGFEAGLLFSEVCMGGLATVELTEFEHDGLCLPAVQVTTDHPAVSTLAAQKAGWQVQVGDYFAMGSGPARALALKPKETYEEIDYEDDADVAILCLESSELPDEDVAEHVADECGVDPENLYLLVAPTASIVGSVQVSARVVETGLYKLLEVLEYDVTRVKYATGTAPIAPVADDDGEAMGRTNDCILYGGTVYLYVEGDDELPEVVEELPSEASEDYGKPFMKIFEEADYDFYKIDPGVFAPARVVVNDLSTGKTYTAGEINVDVLKESFSL
- soluble on expression in E. coli: soluble

Sequence: AWPEGQALGPGMPLPEPSEQEGESVKAGQEPSPKPGTDVIPAAPRKPREFSKLVLLTASDQDEDGVGSKPQEVHCVLSLEMAGPATLASTLQILPVEEQGGVVQPALEMPEQKCSKLDAAPQSLEFLRTPFGGRLLVLESFLYKQEKAVGDKVYWKCRQHAELGCRGRAITRGLRATVMRGHCHAPDEQGLEARRQREKLPSLALPEGLGEPQGPEGPGGRVEEPLEGVGPWQCPEEPEPTPGLVLSKPALEEEEAPRALSLLSLPPKKRSILGLGQARPLEFLRTCYGGSFLVHESFLYKREKAVGDKVYWTCRDHALHGCRSRAITQGQRVTVMRGHCHQPDMEGLEARRQQEKAVETLQAGQDGPGSQVDTLLRGVDSLLYRRGPGPLTLTRPRPRKRAKVEDQELPTQPEAPDEHQDMDADPGGPEFLKTPLGGSFLVYESFLYRREKAAGEKVYWTCRDQARMGCRSRAITQGRRVTVMRGHCHPPDLGGLEALRQREKRPNTAQRGSPGGPEFLKTPLGGSFLVYESFLYRREKAAGEKVYWTCRDQARMGCRSRAITQGRRVMVMRRHCHPPDLGGLEALRQREHFPNLAQWDSPDPLRPLEFLRTSLGGRFLVHESFLYRKEKAAGEKVYWMCRDQARLGCRSRAITQGHRIMVMRSHCHQPDLAGLEALRQRERLPTTAQQEDPEKIQVQLCFKTCSPESQQIYGDIKDVRLDGESQ
- soluble on expression in E. coli: soluble

Sequence: MVIMAGKAVRTEQVSATRQLILTTAERLFAEHGVYAVSNRQVSEAAGQGNNAAVGYHFGTKTDLVRAIAQRHSERVEELRARQLAALGDSPDLRDWVDCLVRPQFDHLAALGSPTWYARFCAQVMTDPALRQIMTEESRASVSLRAIIVGRNRCMPALPDEVRAERGDMARHLIVHTAEERERALAENRPTPRASWQDAADGLVDAIVGMWLAPVTPRGGG
- soluble on expression in E. coli: not soluble

Sequence: MSLKDLVVGMELGYPPFEMSDKTGKASGISVDFLEAFAKKNGYKLVVKNIAWDGLIPALKTAKIDLIMSSMTITDKRKKVVDFSIPYAKANLAILTPLNSDITNIKDLDKKGKVLALKRGSTGHLYAVKNLKNATINLFDKENAAILEVIQGKADGFFYDQLTIYRTWQKHQDTTRAILAPFQENPEFWGIAVRKGDEALKDKLDNFIDESRKNGFLDFLGNKYLKDIKEGHHHHHH
- soluble on expression in E. coli: soluble

Sequence: MSGPVRTRRILEELGPTYIKLGQLLSMRRDLVPLEYAAEFSKLQDDAPSFGFEEVELIIREELGLPVEDLFESFEKKPLACASIGQVHRAKLKNGDDVVVKVQRPGIKEVIESDLDIMYSLSRLLTEHIPEARLYRPVELVDELSRSILAEIDYSQEGWNTDRFAENFKDSEQIHIPKVYWDYTGTRVLTLEYIEGIKGGRVDLLEKLEHHHHHH
- soluble on expression in E. coli: not soluble

Sequence: MGSDKIHHHHHHMDSLTELFCLIDDFCCQFEPALERRLLETGVKKRKRCSGLSLSELMTLTVLFHQLRFRQFKSFYLVYVCRHLQAEFPKLPSYQRCVELLPRCVAPLAALFEMLKGQCDGISIADATAIAVCDNRRIARHRVFADSARRGKTSMGWFYGFKLHAIINSRGELIRLRLTAGNVDDRKPMPDLCQGLFGQLFADKGYLAQWLTEALDQQNLQLITPLRKNMRPVPRTRFEKVILRRRSLIETVFDELKNLCQIEHTRHRSLFNFIVNLMAGIVAYCLSDNKPTLNLTRVNSLAKA
- soluble on expression in E. coli: not soluble

Sequence: MAEMTEMQVHEERVMNLVESSSGTPTITPLTKTNAHRAESIRRIGTDKDAVAFHFRKKSTGMYMYIHTYTENGEEKELRASDFKNWEVTEFKYPGYLEELEEIAVNAYRWNSHDPETRAETDIMGYEKQLHEDLKKIPEAKKRITSILTKVKYPFYSTASHAAQTRW
- soluble on expression in E. coli: not soluble

Sequence: MAHHHHHHMRARPSWHLRLNKNRDDVTTFRGFPATARSCCSIGSISGLQALPHPMELSSVEYRSEGWTHAICRLYRTLYKLHAKQLHPIQREFGDRFVQTEFQRHIDASEKHARIFYQSWYSYAVQLLVGQTSRDMTAEEQQQLTPEQKETMRRLRSHVLQAKQSEPGFHL
- soluble on expression in E. coli: not soluble

Sequence: MTTFILSHNLQVQSKDVPPFETQVLADGIVSNSSAIISATVIQHPHWIIELTSNLPPNDMAVELVKSWKQLRSKLGQSADHVILALGGRKDSLAAPGAPLQEGFWGVDVVETHDEEAFLQAINWDALKSNRPEDGVFEISSNN
- soluble on expression in E. coli: not soluble

Sequence: MGSDKIHHHHHHMEQLLHYVWKHKIFPLKELKTTTGQQVEVIDTGLANTDAGPDFFNAKLKLDGVLWIGNIEIHERSSDWFKHGHHADAGYNSVILHIASEIDTEISRSNGERIPQIQLICPEAVRTNYKELLETDSYPPCYRIIPSLPPFTAHSWMTALQMERFEQKATLLNERLKRCQGNWEDAFFITLARNFGFGLNGDAFETWAHRLPFRAVDKHRNDLFQIEAIFFGQAGILEDSDGDGYYLRLKKEYTYLQHKFGLIPMDASLWRFLRLRPANFPHIRIAQLACLYHRAYGLLSRIMETETLQGVRDILKGGTSEYWLTHYTFGGSSPSRPKTLSNTSLDLLIINTVVTFLYAYGLHKGNRVLCARAGCFLEELKAENNYITRMWEQCGMKASNAADSQALIQLKKEYCDKKKCLYCRIGYEYLKRS
- soluble on expression in E. coli: not soluble

Sequence: MSLLAGVKLEKRDKTLVDATEALAGKAVGFYFSAHWCPPCRGFTPILKDFYEEVEDEFEVVFVSFDRSESDLKMYMSEHGDWYHIPYGNDAIKELSTKYGVSGIPALIIVKPDGTEVTKDGRNDVQNGKDPKATVAKWKA
- soluble on expression in E. coli: not soluble

Sequence: MSKAVIDTGVFVDYIDRKSPLHDVARNVINSIGQLEVLLPYVTIAEICYVTARVLREAGIEEWLEKSVEFVEWLQRHPAVEVVCSTELDVEAAKVKLRYGLALADCYVLALSKLKNCKAVFRKREKEMPDKVEKDFDVIFLEDYVGGDR
- soluble on expression in E. coli: not soluble

Sequence: MAHHHHHHMYSDGERKTVSELQREAEATRKEIIEEAQRLERIKKATAKTQFSIDQLFRFFAREVETEGEKKMLIDLLSSNPPDLHIECVPVLPVVIAIANGRMTNARRIYATDNAFLDDSAFIFLVHTLRFLPQACKIDFLDISGTRVTERGMCFVLEMMIERNTPFTLVAKRLSIPSPEAEAMRARYASLMSALRDKKCCRFIQE
- soluble on expression in E. coli: not soluble

Sequence: MRGSHHHHHHTDPALRARIGIDLGGTKTEVIALGDAGEQLYRHRLPTPRDDYRQTIETIATLVDMAEQATGQRGTVGMGIPGSISPYTGVVKNANSTWLNGQPFDKDLSARLQREVRLANDANCLAVSEAVDGAAAGAQTVFAVIIGTGCGAGVAFNGRAHIGGNGTAGEWGHNPLPWMDEDELRYREEVPCYCGKQGCIETFISGTGFAMDYRRLSGHALKGSEIIRLVEESDPVAELALRRYELRLAKSLAHVVNILDPDVIVLGGGMSNVDRLYQTVGQLIKQFVFGGECETPVRKAKHGDSSGVRGAAWLWPQEGLCGR
- soluble on expression in E. coli: soluble

Sequence: MLRLWEELNRVENLFLELLDDPKKKDVLLYLICYCQLVRRDGEYEVELPKLINCAEKPYKYISGNWQDVLLELGVLYLKDKKGKVYTGKEILLVKNPEGFKVGILPDYREDFYKFYTKLLKYWSVLNSRRTLGSNTTPDYYTPLLVHTFNEKLFKEAQYFSEILAMRFPKEKNLFLSVKLVSEFYREYAKTGRVKADNLNDAINFLSDTPDVFYSVNVKKFKKDIKKFLENLNKGEFYYITIEFASENRGKKRSILSKLWNFIKSLGGKRWNSRSSGMDYYSFIEHLLKKHRRQMMRSLESSTPRLQGT
- soluble on expression in E. coli: not soluble

Sequence: MGSDKIHHHHHHMLKNIPIPSPLSPVEGILIKRKTLERYFSIERLEQQAHQRAKRILREAEEEAKTLRMYAYQEGYEQGMIDALQQVAAYLTDNQTMAWKWMEKIQIYARELFSAAVDHPETLLTVLDEWLRDFDKPEGQLFLTLPVNAKKDHQKLMVLLMENWPGTFNLKYHQEQRFIMSCGDQIAEFSPEQFVETAVGVIKHHLDELPQDCRTISDNAINALIDEWKTKTQAEVIR
- soluble on expression in E. coli: not soluble
